Laboratory results: patent US20220390449A1, “NEW S[…] FOR THE LATENT FORM OF TOXOPLASMOSIS” (INSERM (INSTITUT NATIONAL DE LA SANTÉ ET DE LA RECHERCHE …, priority 2019, published 2022)

Key:
[1] = system: T. gondii-infected HFF cells; experiment: FR235222 treatment and induction of BCLA (proteomics, western blot, immunofluorescence); type: cell-based, Toxoplasma gondii
Description: Host cells and parasites culture. HFF primary cells (Bougdour et al., 2009), RAW264.7, L929, HCT116, A549 and HEK293 cells were cultured in Dulbecco's Modified eagle Medium (DMEM) (Thermo fischer Scientific, France) supplemented with 10% heat-inactivated fetal Bovine Serum (FBS) (Invitrogen), 10 mM (4-(2-hydroxyethyl)-1-piperazine ethanesulphonic acid) (HEPES) buffer pH 7.2, 2 mM L-glutamine and 50 μg/ml of penicillin and streptomycin (Thermo Fisher Scientific). Cells were incubated at 37° C. in 5% CO2. The following Toxoplasma strains were used in this study: type I (RH, GT1), type II (ME49), type III (CTG), atypical (COUG), Neospora caninum; RHΔku80 (Huynh and Carruthers, 2009), PruΔku80 (Fox et al., 2011), PruA7 (Saeij et al., 2007), COUGΔmyr1 (Hakimi, unpublished), PruΔku80Δbcla, PruΔku80-HF-BCLA and 76k-GFP-luc-Δbcla obtained in this study. All parasite strains were maintained in vitro by serial passage on monolayers of HFFs. T. gondii transfection. T. gondii RHΔku80, PruΔku80 and 76k-GFP-luc were electroporated with vectors in cytomix buffer (120 mM KCl, 0.15 mM CaCl2, 10 mM K2HPO4/KH2PO4, pH 7.6, 25 mM HEPES pH 7.6, 2 mM EGTA, 5 mM MgCl2) using a BTX ECM 630 machine (Harvard Apparatus). Electroporation was performed in a 2 mm cuvette at 1.100 V, 25Ω and 25 μF. Stable transgenic parasites were selected with 1 μM pyrimethamine, single-cloned in 96 well plates by limiting dilution and verified by immunofluorescence assay.
FR235222 treatment and induction. FR235222 was provided by Astellas Pharma Inc. (Osaka, Japan) and dissolved into DMSO as described by Bougdour et al., 2009 and the final concentration in culture medium was either 25 ng/mL or 50 ng/mL. The media containing FR235222 was added to infected HFF cells 16 hours after infection for 24 h to 7 days.
Immunofluorescence microscopy. Immunofluorescence assays on in vitro parasites were performed as described previously (Braun et al., 2013). In brief, T. gondii-infected HFF cells grown on coverslips or cysts purified from brains of mice were fixed in 3% formaldehyde for 20 min at room temperature, permeabilised with 0.1% (v/v) Triton X-100 for 15 min and blocked in phosphate-buffered saline (PBS) containing 3% (v/v) bovine serum albumin (BSA). For immunolabeling on histological sections of brains, the brain layers spotted on glass slides were first solvent-dewaxed using toluene for 3*10 min and absolute alcohol for 3*10 min. The slides were then treated with citrate buffer pH 6, heated at 100° C. during 1 hour, rinsed with water for 2*10 min and blocked in PBS containing 3% (v/v) bovine serum albumin (BSA). The cells or brain layers were then incubated for 1 hour with the primary antibodies indicated in the figures followed by the addition of secondary antibodies conjugated to Alexa Fluor 488 or 594 (Molecular Probes) at a 1:1,000 dilution for 1 hour. Nuclei of both host cells and parasites were stained for 10 min at room temperature with Hoechst 33258 at 2 μg/ml in PBS. Coverslips were mounted on a glass slide with Mowiol mounting medium, images were acquired with a fluorescence ZEISS ApoTome.2 microscope and images were processed by ZEN software (Zeiss).
Western Blot. Proteins were separated by SDS-PAGE and transferred to a polyvinylidene fluoride membrane (Immobilon-P; EMP Millipore) by liquid transfer, and Western blots were probed using appropriate primary antibodies followed by phosphatase-conjugated goat secondary antibodies (Promega). Signals were detected using NBT-BCIP (Amresco).

TgHDAC3 = details: low doses, RH strain; cited from earlier work
[2] = system: trypsin, chymotrypsin, elastase and papain; experiment: Limited proteolysis of rBCLA; type: physicochemical; details: 1/30 w/w, up to 50 minutes at 37° C.
Description: Limited proteolysis to find antigenic sub-fragments within Cter-BCLA. To recover a highly antigenic sub-fragment of Cter-BCLA, a limited proteolysis on the purified sample was undertaken using trypsin, chymotrypsin, elastase and papain (all Sigma Aldrich). Reactions were carried out in 30 μl reaction volume in 50 mM Tris pH 8.0, 150 mM NaCl, 5 mM BME and 0.5 mM MgCl2. In each reaction, 3 μg of Cter-BCLA were digested by 100 ng of protease (1/30 w/w) over the course of 50 minutes at 37° C. Reactions were stopped at each time point by the addition of 10 μl of SDS PAGE loading buffer followed by 5 minutes heating at 95° C. then kept on ice until loading on the gel.

[3] = system: anti-T. gondii IgG antibodies of mice; experiment: Western-blot BCLA serological testing on mice sera; type: binding
[4] = Solubility of rBCLA recombinantly expressed in E. coli; type: physicochemical; details: native, N-terminal poly-histidine tag
Description: Recombinant expression. Transformation was performed using BL21(DE3)-CodonPlus—RIL chemically competent E. coli (Stratagene) which were incubated on ice with 1 μg of the pet30-(a) Cter-BCLA plasmid for 10 minutes, heat shocked at 42° C. for 45 seconds, pre-incubated 45 min in LB at 37° C. then spread on a LB agar plate containing Kanamycin (Kan) and Chloramphenicol (Chlo) and incubated for 12 h. A single colony was then picked to inoculate a LB/Kan/Chlo 50 ml pre-culture grown for 16 h. 5 ml of grown pre-culture were then used to inoculate 1 L flasks of Terrific Broth medium (Formedium) containing Chlo/Kan. Cultures were grown at 37° C. until reaching an OD600 of 0.5-0.8 then induced by adding 0.7 mM IPTG (VWR) and further incubated at 18° C. ON. After incubation, cells were centrifuged 25 min at 3000 G, the supernatant was discarded and the pellet flash frozen in liquid nitrogen and kept at −80° C.
Lysis. Purification was performed on 3 pellets of 1 L cultures, each resuspended in 50 ml of lysis buffer containing 600 mM NaCl, 50 mM Tris pH 8, 5 mM Beta-mercaptoethanol (BME), 0.2% w/v N-Lauryl Sarkozine and 1 Complete anti protease cocktail (Roche) tab per 50 ml. Lysis was performed using a 10 mini-pulsed sonication (15 sec ON, 30 sec OFF) at 50° amplitude over ice with the lysate never reaching a temperature over 13° C. […]

[5] = system: anti-T. gondii IgG antibodies of mice; experiment: Western-blot BCLA serological testing on mice sera; type: binding; remark: listed apart in the source
Description: Mice and Experimental Infection. 6-weeks-old BALBC/c, CBA, NMRI or Swiss mice were obtained from Janvier Laboratories (Le Genest-Saint-Isle, France). Mouse care and experimental procedures were performed under pathogen free conditions in accordance with established institutional guidance and approved protocols from the Institutional Animal Care and Use Committee of the University Grenoble Alpes (agreement no B3851610006). Female mice were used for all studies. For intraperitoneal (i.p.) infection, tachyzoites were grown in vitro and extracted from host cells by passage through a 27-gauge needle, washed three times in PBS, and quantified with a haemocytometer. Parasites were diluted in Hank's Balanced Salt Solution (Life), and mice were inoculated by the i.p. route with tachyzoites of each strain (in 200 μl) using a 28-gauge needle. For oral gavage of infective cysts, brains from chronically infected mice (76k-GFP-luc and 76k-GFP-luc-Δbcla) were crushed in PBS, the number of cysts was microscopically quantified and the mice were forced fed with 100 μl of brain homogenate containing 20 to 40 cysts using ball-tipped feeding needle. Blood was collected by caudal puncture or by intracardiac puncture when the mice were euthanised. Animal euthanasia was completed in an approved CO2 chamber. For histological analysis of ileum and immunolabeling on histological sections of brains or, the ilea and brains were removed from mice, entirely embedded in a paraffin wax block and cut in 5 μm-thick layers using microtome. For statistical analysis of mice survival data, the Mantel-Cox and Gehan-Breslow-Wilcoxon tests were used.
Western-blot BCLA serological testing. Single western blot strips were prepared using 15 well 4-12% NuPage gels (Life technologies) loaded with 5 μl of sample at 0.1 mg/ml. The gels were run at 185 v for 40 minutes in MES buffer then electro-transferred at 105 v for 1.5 h on PVDF membranes. The transferred lanes were then cut-out into individualized strips. The strips were then blocked in TTBS with 5% powdered milk (w/v) for 1 h. Serum testing was then performed in TTBS with a dilution of 1/400 of the serum for 1 h at 4° C. The strips were then washed 3 times in TTBS and further incubated 1 h with a 1/7500 dilution of secondary antibody targeting either mouse IgGs or human IgGs and coupled with a phosphatase alkaline enzyme (Promega). […] Bands in the positive sera appear within 1 to 5 minutes. In parallel to the serum testing, a single strip was always used as an internal antigen control for each blot set. After blocking, this strip was incubated for 1 h with a peroxidase coupled anti poly-histidine monoclonal antibody (Sigma) diluted 1/2000 in TTBS. […] For each series of i.p. or orally infected mice, a serum of at least on mouse of each series was checked for Toxoplasma antibodies using Western blot analysis of the IgG immune response using the commercial kit LD bio Toxoplasma mouse IgG (LD bio), with the same anti-mouse IgG-alkaline phosphatase conjugate and chromogenic substrate previously described for BCLA.

With FR235222 the “BCLA protein induction (quantitative proteomics LC-MS/MS)” value ([1]; FR235222 90 nM versus DMSO 0.1%, type II (PruΔku80) strain in primary human fibroblasts) was “significantly induced”, the “BCLA signal intensity (western blot, ~140-kDa band)” value ([1]; FR235222 versus untreated tachyzoites) was “significantly increased” and the “BCLA signal intensity upon FR235222 (immunofluorescence, per PV)” value ([1]; type I (GT1 and RHΔku80) and haplogroup 11 (COUG) strains) was “rather moderate”. For the same molecule, the “BCLA signal intensity upon FR235222 (immunofluorescence, per PV)” value ([1]; type II (PruΔku80, ME49, 76K-GFP-Luc) strain) was “very strong induction”, the “BCLA signal intensity upon FR235222 (immunofluorescence, per PV)” value ([1]; type III (CTG) strain) was “faint (if no) signal” and the “in vitro tachyzoite to bradyzoite stage conversion” value (TgHDAC3) was “induces”.

B1: rBCLA: C-terminal antigenic domain, res 1089-1275 of BCLA (SEQ ID NO:2), expressed in E. coli as recombinant protein (protein)
chain: MIPGVGDKTEASVLDSIENAVQKVLENLLKAAAGELQPAEAEEARLLVADLKAVVDTAEQVRVEGEAFFRASVDLYEAVKNLRDSEEKLRPLTKGELVDVVRQFLATQIFVQDRASAFLRVFERLAELLAAEQMKAVFAMVEEGVSSSERVARVAGELVPMMKKDRERRYGDLVAVTSWFMRRMEHI
modifications: Synthetic C-terminal antigenic domain (res 1089-1275)
With B1 the “degradation by protease (SDS PAGE)” value ([2]; chymotrypsin) was “quickly degraded”, the “degradation by protease (SDS PAGE)” value ([2]; elastase, trypsin and papain, stable fragments around the 17-kDa marker) was “partially degraded” and the “reactivity of rBCLA with mice sera (immunoblot)” value (“reactivity … (immunoblot)” for short) ([3]; FIG. 8c: C57BL/6 mice, oral 47 cysts 76k-GFP-luc or 76k-GFP-luc-Δbcla (type II), 8 days (acute)) was “not reacting”. The “reactivity of rBCLA with anti-T. gondii IgM and IgA” value ([3]; mice sera, data not shown) was “not reacting”, the “solubility on expression in E. coli” value [4] was “natively insoluble” and the “reactivity … (immunoblot)” value ([5]; FIG. 8a: NMRI mice, i.p. 10^4 tachyzoites COUG and COUG-Δmyr1, 7 days (acute)) was “not reacting”. The “reactivity … (immunoblot)” value ([5]; FIG. 8b: CBA mice, i.p. 10^3 tachyzoites RH (type I), 7 days (acute)) was “not reacting”, the “reactivity … (immunoblot)” value ([5]; FIG. 9a: Balb/c mice, i.p. 10^3 to 10^6 tachyzoites PruA7 (type II), 42 days) was “reacting quite proportionally” and the “reactivity … (immunoblot)” value ([5]; FIG. 9b: CBA mice, i.p. 10^6 tachyzoites ME49 (type II), 80 days) was “strongly reacting”. For the same molecule, the “reactivity … (immunoblot)” value ([5]; FIG. 9c: NMRI mice, oral 20 cysts 76k-GFP-luc (type II), 22 months) was “strongly reacting”, the “reactivity … (immunoblot)” value ([5]; FIG. 9e: CBA mice, i.p. 10^3 tachyzoites RH (type I) followed by pyrimethamine or sulfadiazine treatment, 22 days) was “very slightly reacting” and the “reactivity … (immunoblot)” value ([5]; FIG. 9f: NMRI mice, i.p. 10^6 tachyzoites CTG (type III), 42 days) was “not reacting”. For the same molecule, the “reactivity … (immunoblot)” value ([5]; FIG. 9g: NMRI mice, i.p. 10^6 tachyzoites PruΔku80 (type II), 42 days) was “not reacting”, the “reactivity … (immunoblot)” value ([5]; FIG. 11a: Swiss mice i.p. infected with T. gondii PCR positive human amniotic fluid (confirmed congenital toxoplasmosis)) was “strongly reacting” and the “reactivity … (immunoblot)” value ([5]; FIG. 9h: Balb/c mice, i.p. 10^5 tachyzoites 76k-GFP-luc (type II), reactivating or not with corticosteroids, 42 days) was “strongly reacting”. The “reactivity … (immunoblot)” value ([5]; FIG. 9d: Balb/c mice, i.p. 10^6 tachyzoites 76k-GFP-luc (type II), 21 days) was “strongly reacting” and the “reactivity … (immunoblot)” value ([5]; FIG. 9d: Balb/c mice, i.p. 10^6 tachyzoites 76k-GFP-luc-Δbcla (type II), 21 days) was “barely reacting”.
